Numbering of substitutions follows the chain as printed.
T1: cynomolgus monkey C5 (cynomolgus monkey, limits assumed)
T1 construct: also called recombinant cynomolgus monkey C5
T1 chain 1: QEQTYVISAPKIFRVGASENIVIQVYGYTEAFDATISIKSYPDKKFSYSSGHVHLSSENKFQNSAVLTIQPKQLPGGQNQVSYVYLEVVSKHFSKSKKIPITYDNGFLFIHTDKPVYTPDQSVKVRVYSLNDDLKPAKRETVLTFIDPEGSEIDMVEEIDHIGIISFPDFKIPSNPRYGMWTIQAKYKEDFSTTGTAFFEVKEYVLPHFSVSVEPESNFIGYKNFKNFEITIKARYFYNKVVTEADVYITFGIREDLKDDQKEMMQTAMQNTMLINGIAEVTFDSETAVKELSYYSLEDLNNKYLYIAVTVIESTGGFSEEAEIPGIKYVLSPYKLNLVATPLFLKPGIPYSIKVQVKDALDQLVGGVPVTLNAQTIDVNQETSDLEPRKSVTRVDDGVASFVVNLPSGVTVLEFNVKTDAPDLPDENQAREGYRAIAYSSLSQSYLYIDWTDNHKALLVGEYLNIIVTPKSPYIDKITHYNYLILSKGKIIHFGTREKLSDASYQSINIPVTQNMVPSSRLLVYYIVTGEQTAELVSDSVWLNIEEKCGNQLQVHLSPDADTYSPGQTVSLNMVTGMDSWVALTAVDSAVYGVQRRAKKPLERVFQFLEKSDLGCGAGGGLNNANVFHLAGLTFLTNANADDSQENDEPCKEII
T1 chain 2: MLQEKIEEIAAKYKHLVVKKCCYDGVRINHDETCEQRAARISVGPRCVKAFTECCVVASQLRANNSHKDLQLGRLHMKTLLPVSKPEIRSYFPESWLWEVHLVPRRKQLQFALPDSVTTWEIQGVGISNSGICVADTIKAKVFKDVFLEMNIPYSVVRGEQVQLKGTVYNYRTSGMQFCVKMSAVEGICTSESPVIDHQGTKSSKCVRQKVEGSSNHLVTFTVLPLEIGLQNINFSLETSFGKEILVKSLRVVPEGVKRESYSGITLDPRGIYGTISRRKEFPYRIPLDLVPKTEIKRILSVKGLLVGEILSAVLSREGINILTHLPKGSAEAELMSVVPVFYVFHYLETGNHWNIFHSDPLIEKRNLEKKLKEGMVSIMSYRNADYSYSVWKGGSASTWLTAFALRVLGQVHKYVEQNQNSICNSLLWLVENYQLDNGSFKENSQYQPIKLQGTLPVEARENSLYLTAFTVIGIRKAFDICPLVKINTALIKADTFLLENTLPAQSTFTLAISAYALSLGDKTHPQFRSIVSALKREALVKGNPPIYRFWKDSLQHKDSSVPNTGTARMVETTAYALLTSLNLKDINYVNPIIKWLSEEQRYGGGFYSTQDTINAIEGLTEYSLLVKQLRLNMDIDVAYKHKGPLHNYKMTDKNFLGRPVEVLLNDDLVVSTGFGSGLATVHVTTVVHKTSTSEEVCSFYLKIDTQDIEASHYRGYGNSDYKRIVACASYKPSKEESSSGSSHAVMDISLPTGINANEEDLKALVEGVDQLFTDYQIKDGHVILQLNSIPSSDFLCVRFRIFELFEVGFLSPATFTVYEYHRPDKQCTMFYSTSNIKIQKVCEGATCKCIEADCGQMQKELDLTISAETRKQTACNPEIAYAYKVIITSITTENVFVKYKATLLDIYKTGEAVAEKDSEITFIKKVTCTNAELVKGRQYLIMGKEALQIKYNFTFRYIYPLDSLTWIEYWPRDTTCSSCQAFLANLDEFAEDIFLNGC

B1: antibody comprising heavy chain of clone 18 and light chain of 20L065 (antibody, V domains shown)
VH: QVQLVQSGAEVKKPGSSVKVSCKASGGTFSSYAISWVRQAPGQGLEWMGGIIPIFGTANYAQKFQGRVTITADESTSTAYMELSSLRSEDTAVYYCARQLYGYYELDIWGQGTLVTVSS
VL: DIQMTQSPSSLSASVGDRVTITCRASQSIHDDLAWYQQKPGKAPKLLIYEASNLQSGVPSRFSGSGSGTDFTLTISSLQPEDFATYYCQQYSSYPHTFGQGTKVEIK
notes: also called clone 18 with common light chain
B2: CFP0021 21L 96Y (antibody, V domains shown)
VH: QVQLVESGGGLVQPGGSLRLSCAASGFTFSDHYMDWVRQAPGKGLEWVGRTRNKANSYTTEYAASVKGRFTISRDDSKNSLYLQMNSLKTEDTAVYYCARTGMMYWGIFDVWGQGTLVTVSS
VL: B1 VL with H30E, E50H, N53T, Y91H, S92D, H96Y
B3: CFP0017 17L 34N (antibody, V domains shown)
VH: B1 VH with Q99G, L100G, Y101W, G102W, Y103G, Y104G, E105A, I108Y
VL: B1 VL with H30E, A34N, E50H, N53S, Y91S, S92D, H96L
B4: CFP0017 17L 53H (antibody, V domains shown)
VH: B1 VH with Q99G, L100G, Y101W, G102W, Y103G, Y104G, E105A, I108Y
VL: B1 VL with H30E, E50H, N53H, Y91S, S92D, H96L
B5: CFP0017 17L 53N (antibody, V domains shown)
VH: B1 VH with Q99G, L100G, Y101W, G102W, Y103G, Y104G, E105A, I108Y
VL: B1 VL with H30E, E50H, Y91S, S92D, H96L
B6: CFP0017 17L 53T (antibody, V domains shown)
VH: B1 VH with Q99G, L100G, Y101W, G102W, Y103G, Y104G, E105A, I108Y
VL: B1 VL with H30E, E50H, N53T, Y91S, S92D, H96L
B7: CFP0017 17L 93D (antibody, V domains shown)
VH: B1 VH with Q99G, L100G, Y101W, G102W, Y103G, Y104G, E105A, I108Y
VL: B1 VL with H30E, E50H, N53S, Y91S, S92D, S93D, H96L
B8: CFP0017 17L 93G (antibody, V domains shown)
VH: B1 VH with Q99G, L100G, Y101W, G102W, Y103G, Y104G, E105A, I108Y
VL: B1 VL with H30E, E50H, N53S, Y91S, S92D, S93G, H96L
B9: CFP0017 17L 93N (antibody, V domains shown)
VH: B1 VH with Q99G, L100G, Y101W, G102W, Y103G, Y104G, E105A, I108Y
VL: B1 VL with H30E, E50H, N53S, Y91S, S92D, S93N, H96L
B10: CFP0017 17L 93R (antibody, V domains shown)
VH: B1 VH with Q99G, L100G, Y101W, G102W, Y103G, Y104G, E105A, I108Y
VL: B1 VL with H30E, E50H, N53S, Y91S, S92D, S93R, H96L
B11: CFP0017 17L 94S (antibody, V domains shown)
VH: B1 VH with Q99G, L100G, Y101W, G102W, Y103G, Y104G, E105A, I108Y
VL: B1 VL with H30E, E50H, N53S, Y91S, S92D, Y94S, H96L
B12: CFP0017 17L 94T (antibody, V domains shown)
VH: B1 VH with Q99G, L100G, Y101W, G102W, Y103G, Y104G, E105A, I108Y
VL: B1 VL with H30E, E50H, N53S, Y91S, S92D, Y94T, H96L
B13: CFP0019 (antibody, V domains shown)
VH: QVQLQESGPGLVKPSETLSLTCAVSGYSISSGYYWGWIRQPPGKGLEWIGSIYHSGSTYYNPSLKSRVTISVDTSKNQFSLKLSSVTAADTAVYYCARYYVWLGGPTYMDYWGQGTLVTVSS
VL: B1 VL with H30E, E50H, N53T, Y91S, S92D, S93G, H96L
notes: IgG format
B14: CFP0017 17L 96Y (antibody, V domains shown)
VH: B1 VH with Q99G, L100G, Y101W, G102W, Y103G, Y104G, E105A, I108Y
VL: B1 VL with H30E, E50H, N53S, Y91S, S92D, H96Y
B15: optimized 20//18 (bispecific antibody, V domains shown)
VH 1: QVQLQESGPGLVKPSETLSLTCAVSGYSISSGYYWGWIRQPPGKGLEWIGSIYHSGSTYYNKKLKSRVTISVDTSKNQFSLKLSSVTAADTAVYYCARHDPTWYHHGYFDYWGQGTLVTVSS
VH 2: B1 VH with A33S
VL: B1 VL with D31N, N53E, Q90H, H96Y
notes: Bispecific IgG with the common light chain 20L233
B16: CFP0017 17L 31A (antibody, V domains shown)
VH: B1 VH with Q99G, L100G, Y101W, G102W, Y103G, Y104G, E105A, I108Y
VL: B1 VL with H30E, D31A, E50H, N53S, Y91S, S92D, H96L
B17: CFP0017 17L 31H (antibody, V domains shown)
VH: B1 VH with Q99G, L100G, Y101W, G102W, Y103G, Y104G, E105A, I108Y
VL: B1 VL with H30E, D31H, E50H, N53S, Y91S, S92D, H96L

What was measured:
[1] = biological target: T2, human C5 (human, UniProt P01031 19-673; P01031 678-1676, Beta and alpha chains are disulfide-linked and the protein is glycosylated.); experiment: Biacore, 37 degrees C; antibody captured, human C5 injected (concentration not given); association pH 7.4, dissociation pH 7.4 (circles) or pH 5.8 (triangles)
T2 construct: Either in-house recombinant C5 or plasma derived C5 (CALBIOCHEM) was used; also called recombinant human C5; plasma derived human C5

[2] = biological target: T2, human C5; experiment: Biacore, captured antibody, pH 7.4, 37 C;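 also: biacore binding response of anti-C5 antibody light chain variants captured on chip with human C5 injected, ACES running buffer containing 1.2 mM CaCl₂, parent light chain antibody set to 100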
[3] = biological target: T2, human C5; experiment: Biacore T200, 37 C, kd from the dissociation phase only, dissociation at pH 7.4
Procedure: (§1) Anti-C5 antibodies were captured on an immobilized molecule, and then human C5 was injected. The running buffers used were ACES pH 7.4 and pH 5.8 (20 mM ACES, 150 mM NaCl, 1.2 mM CaCl₂, 0.05% Tween 20). Kinetics parameters at both pH conditions were determined by fitting the sensorgrams with 1:1 binding -RI (without bulk effect adjustment) model using Biacore T200 Evaluation software, version 2.0 (GE Healthcare).
(§2) These variants were examined for the binding against human C5.

[4] = biological target: T1, cynomolgus monkey C5; experiment: as above
Procedure: as §1

[5] = biological target: T2, human C5; experiment: Biacore T200, captured antibody, recombinant human C5 injected, pH 7.4, 37 C, 1:1 fit
Procedure: as §1, §2

[6] = biological target: T1, cynomolgus monkey C5; experiment: Biacore T200, captured antibody, cynomolgus monkey C5 injected, pH 7.4, 37 C, 1:1 fit
Procedure: as §1

[7] = biological target: T2, human C5; experiment: Biacore T200, 37 C, kd from the dissociation phase only, association at pH 7.4 and dissociation at pH 5.8
Procedure: as §1, §2

[8] = biological target: T1, cynomolgus monkey C5; experiment: as above
Procedure: as §1

| Binder | % binding (parent = 100) [2] [%] | other results |
| --- | --- | --- |
| B1 | – | binding result [1]: binds |
| B2 | 1.4 | – |
| B3 | -9.4 | – |
| B4 | 69.6 | – |
| B5 | 52.9 | – |
| B6 | 109 | – |
| B7 | 22.9 | – |
| B8 | 51 | – |
| B9 | 63 | – |
| B10 | 84.9 | – |
| B11 | -8.4 | – |
| B12 | 4.3 | – |
| B13 | 100 | – |
| B14 | -11.1 | – |
| B15 | – | koff [3]: 0.000104 s⁻¹; koff [4]: 0.000224 s⁻¹; Kd [5]: 0.268 nM; koff [5]: 9.72e-05 s⁻¹; kon [5]: 362000 M⁻¹ s⁻¹; Kd [6]: 0.664 nM; koff [6]: 0.000236 s⁻¹; kon [6]: 355000 M⁻¹ s⁻¹; koff [7]: 0.0594 s⁻¹; koff [8]: 0.107 s⁻¹ |
| B16 | 0.6 | – |
| B17 | 3.4 | – |

— patent publication US20180016327A1 (Chugai, published 2018)
